Test results: publication PMC11891784, “Reversible enzyme-catalysed NAD^+/NADH electrochemistry” (Chemical Science, 2025)

Substrate: NC(=O)c1ccc[n+]([C@@H]2O[C@H](COP(=O)(O)OP(=O)(O)OC[C@H]3O[C@@H](n4cnc5c(N)ncnc54)[C@H](O)[C@@H]3O)[C@@H](O)[C@H]2O)c1
Test: mediated catalytic cyclic voltammetry
Type: biochemical, Cupriavidus necator
Conditions: methyl viologen 60 μM as electron donor, 50 mM phosphate pH 7.5, 25 °C, N2, FdsBG 0.34 μM, turnover number calculated from simulated rate constant and Km

B1: FdsBG (subcomplex of formate dehydrogenase FdsDABG) (Cupriavidus necator H16) (protein)
chain: MITITTIFVPRDSTALALGADDVARAIAREAAARNEHVRIVRNGSRGMFWLEPLVEVQTGAGRVAYGPVSAADVPGLFDAGLLQGGEHALSQGVTEEIPFLKQQERLTFARVGITDPLSLDDYRAHEGFAGLERALAMQPAEIVQEVTDSGLRGRGGAAFPTGIKWKTVLGAQSAVKYIVCNADEGDSGTFSDRMVMEDDPFMLIEGMTIAALAVGAEQGYIYCRSEYPHAIAVLESAIGIANAAGWLGDDIRGSGKRFHLEVRKGAGAYVCGEETALLESLEGRRGVVRAKPPLPALQGLFGKPTVINNVISLATVPVILARGAQYYRDYGMGRSRGTLPFQLAGNIKQGGLVEKAFGVTLRELLVDYGGGTRSGRAIRAVQVGGPLGAYLPESRFDVPLDYEAYAAFGGVVGHGGIVVFDETVDMAKQARYAMEFCAIESCGKCTPCRIGSTRGVEVMDRIIAGEQPVKHVALVRDLCDTMLNGSLCAMGGMTPYPVLSALNEFPEDFGLASNPAKAA
notes: FdsBG subcomplex without FdsA and FdsD; FdsB 55 kDa (FMN, [4Fe-4S]) and FdsG 19 kDa ([2Fe-2S]); 74 kDa in total; expressed and purified by a published procedure; with NAD-dependent formate dehydrogenase gamma subunit
Km: 1.2(1) mM | kcat: 2400 s⁻¹
